Measured values reported in article PMC10704376, “tRNA m^1G9 modification depends on substrate-specific RNA conformational changes induced by the methyltransferase Trm10” (The Journal of Biological Chemistry, 2023).
Counter-ions that a name gives are not always drawn.

How the values were obtained:
[1] = target: T1, Trm10 (Saccharomyces cerevisiae, UniProt Q12400); assay: electrospray mass spectrometry of RNase T1 fragments (+[…] Da adduct); format: biochemical; settings: cosubstrate with tRNA-Gly-GCC; 1 h, 37 °C; covalent to tRNA G9, not to the enzyme
T1 construct: full-length, N-terminal 6xHis tag, plasmid pJEJ12-3, expressed in E. coli BL21(DE3) pLysS; monomer (printed PDB 4JWJ covers the C-terminal domain only)
T1 sequence (Q12400 1-293): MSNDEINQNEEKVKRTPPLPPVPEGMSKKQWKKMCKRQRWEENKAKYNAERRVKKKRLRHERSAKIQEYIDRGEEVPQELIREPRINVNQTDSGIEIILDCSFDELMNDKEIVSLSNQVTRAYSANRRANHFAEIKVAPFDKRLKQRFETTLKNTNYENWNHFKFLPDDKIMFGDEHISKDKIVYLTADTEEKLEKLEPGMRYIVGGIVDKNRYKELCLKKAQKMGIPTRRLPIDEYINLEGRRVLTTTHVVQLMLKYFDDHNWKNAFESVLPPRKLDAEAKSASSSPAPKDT

[2] = test system: Trm10 (wild type) (Saccharomyces cerevisiae); assay: fluorescence anisotropy; settings: unmodified transcript, FA: 15 nM labeled tRNA, 50-300 nM enzyme, 30 min at room temperature, buffer as in ref 17 (not given), EMSA: 4 uM tRNA, 0-10 uM protein, 30 C 30 min
[3] = test system: Trm10-KRR (Saccharomyces cerevisiae); assay: fluorescence anisotropy; settings: unmodified transcript, FA: 15 nM labeled tRNA, 50-300 nM enzyme, 30 min at room temperature, buffer as in ref 17 (not given), EMSA: 4 uM tRNA, 0-10 uM protein, 30 C 30 min

Compound	electrospray mass spectrometry of RNase T1 fragments (+393 Da adduct) [1]	Kd ([2]; separate data set, differs from Fig 4C)	Kd [2]	Kd [3]
Nc1ncnc2c1ncn2[C@@H]1O[C@H](CN(CCI)CC[C@H](N)C(=O)O)[C@@H](O)[C@H]1O [NM6, 5′-(diaminobutyric acid)-N-iodoethyl-5′-deoxyadenosine ammoniumhydrochloride]	NM6 was confirmed to be a suitable cosubstrate for tRNA modification by Trm10 using mass spectrometry			
tRNAGly-GCC, 5'-fluorescein transcript		100 nM	20 nM	34 nM
tRNALeu-CAA, FA transcript			38 nM	
tRNAVal-UAC, FA transcript			96 nM	
